In experiment [1] the target is T1, DEN2 cNS2B-NS3pro complex (Dengue virus 2 (DEN2 / DENV-2), UniProt P14340 1394-1440; P14340 1476-1660).
T1 sequence 1: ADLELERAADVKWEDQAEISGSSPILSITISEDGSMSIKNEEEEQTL
T1 sequence 2: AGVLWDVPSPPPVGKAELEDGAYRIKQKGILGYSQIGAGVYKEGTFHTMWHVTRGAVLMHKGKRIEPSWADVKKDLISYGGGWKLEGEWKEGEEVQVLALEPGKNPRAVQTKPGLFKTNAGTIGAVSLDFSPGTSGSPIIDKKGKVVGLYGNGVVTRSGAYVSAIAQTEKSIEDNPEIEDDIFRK

Experiment [2] deals with T1, DEN2 cNS2B-NS3pro complex. Put plainly: cell-based or functional assay.

B1: RetroMAD1 (other)
chain: MGRICRCICGRGICRCICGVPGVGVPGVGGATGSDVNFDLSTATAKTYTKFIEDFRATLPFSHKVYDIPLLYSTISDSRRFILLDLTSYAYETISVAIDVTNVYVVAYRTRDVSYFFKESPPEAYNILFKGTRKITLPYTGNYENLQTAAHKIRENIDLGLPALSSAITTLFYYNAQSAPSALLVLIQTTAEAARFKYIERHVAKYVATNFKPNLAIISLENQWSALSKQIFLAQNQGGKFRNPVDLIKPTGERFQVTNVDSDVVKGNIKLLLNSRASTADENFITTMTLLGESVVEFPWALWKTMLKELGTMALHAGKAALGAAADTISQGTQVPGVGVPGVGKLAAALEHHHHHH
Turning to B1, the Ki (in general, the dissociation constant of the complex between target and ligand, obtained from inhibition or displacement) in experiment [1] worked out at 2.49 µM. For the same molecule, the “IC50 of NS2B-NS3 protease inhibition” value in experiment [2] is 4.99 µM.

The values are drawn from US20150284438A1 (BIOVALENCE SDN BHD, published 2015).
